Test results reported in patent US20250026849A1 (ARCELLX, published 2025).

T1: BCMA (Homo sapiens (Human), UniProt Q02223 1-54, limits assumed)
T1 sequence: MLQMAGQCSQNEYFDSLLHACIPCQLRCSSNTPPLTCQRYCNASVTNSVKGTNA


Target: T1, BCMA
Assay: ELISA, format not described
Set-up: unit not given here

ELISA_avg | Binder
3.28 | D-domain SEQ ID NO: 145 (designed binder) MGSWEEFYGRLSAIQDRLWALGGSEAELAAFEKEIAAFESELQAYKGKGNPEVEWLRMHAAVIRRALQAYRHN
3.49 | D-domain SEQ ID NO: 142 (designed binder) MGSWHEFRNRLGAIDSRLWALGGSEAELAAFEKEIAAFESELQAYKGKGNPEVETLRARAAMIRSVLQAYRHN
7.34 | D-domain SEQ ID NO: 171 (designed binder) MGSWIEFHQRLNAIFNRLRALGGSEAELAAFEKEIAAFESELQAYKGKGNPEVEWLRHHAAYIREMLQAYRHN
11.4 | D-domain SEQ ID NO: 179 (designed binder) MGSWVEFWERLDAIDNRLGALGGSEAELAAFEKEIAAFESELQAYKGKGNPEVEWLRWHAAYIRGYLQAYRHN
18.2 | D-domain SEQ ID NO: 180 (designed binder) MGSWAEFWDRLDAIDSRLNALGGSEAELAAFEKEIAAFESELQAYKGKGNPEVEYLREWAAYIRGYLQAYRHN
14.5 | D-domain SEQ ID NO: 173 (designed binder) MGSWYEFWLRLSAISYRLQALGGSEAELAAFEKEIAAFESELQAYKGKGNPEVEWLRKEAAEIRSWLQAYRHN
20.6 | D-domain SEQ ID NO: 174 (designed binder) MGSWYEFQLRLWAIHWRLIALGGSEAELAAFEKEIAAFESELQAYKGKGNPEVEWLRMRAAEIRNELQAYRHN
11.8 | D-domain SEQ ID NO: 169 (designed binder) MGSWFEFDKRLYAIIHRLRALGGSEAELAAFEKEIAAFESELQAYKGKGNPEVEKLRYKAAIIRLYLQAYRHN
6.16 | D-domain SEQ ID NO: 178 (designed binder) MGSWFEFDRRLKAIDRRLMALGGSEAELAAFEKEIAAFESELQAYKGKGNPEVEWLRMQAAIIRNYLQAYRHN
12.5 | D-domain SEQ ID NO: 182 (designed binder) MGSWSEFWDRLYAIRIRLDALGGSEAELAAFEKEIAAFESELQAYKGKGNPEVEKLRSVAARIRNWLQAYRHN
11.7 | D-domain SEQ ID NO: 210 (designed binder) MGSWMEFWDRLYAIEFRLFALGGSEAELAAFEKEIAAFESELQAYKGKGNPEVEKLRRVAATIRNELQAYRHN
13.6 | D-domain SEQ ID NO: 184 (designed binder) MGSWSEFNDRLDAIRWRLDALGGSEAELAAFEKEIAAFESELQAYKGKGNPEVEWLRQVAATIRYRLQAYRHN
14.9 | D-domain SEQ ID NO: 183 (designed binder) MGSWSEFWFRLGAIRNRLDALGGSEAELAAFEKEIAAFESELQAYKGKGNPEVEKLRDVAAHIRHWLQAYRHN
9.48 | D-domain SEQ ID NO: 175 (designed binder) MGSWYEFAHRLEAIEWRLIALGGSEAELAAFEKEIAAFESELQAYKGKGNPEVEELRQYAAAIRNYLQAYRHN
3.87 | D-domain SEQ ID NO: 172 (designed binder) MGSWNEFRLRLWAITERLRALGGSEAELAAFEKEIAAFESELQAYKGKGNPEVECLRAEAAWIRTMLQAYRHN
13.9 | D-domain SEQ ID NO: 176 (designed binder) MGSWYEFDTRLGAIRNRLGALGGSEAELAAFEKEIAAFESELQAYKGKGNPEVEWLRFQAAYIRFLLQAYRHN
5.72 | D-domain SEQ ID NO: 177 (designed binder) MGSWYEFWVRLTAIRWRLEALGGSEAELAAFEKEIAAFESELQAYKGKGNPEVEWLREQAASIRWVLQAYRHN
3.93 | D-domain SEQ ID NO: 149 (designed binder) MGSWMEFEGRLPAILARLRALGGSEAELAAFEKEIAAFESELQAYKGKGNPEVEHLRDKAAYIRWMLQAYRHN
4.55 | D-domain SEQ ID NO: 161 (designed binder) MGSWYEFEHRLKAIVSRLGALGGSEAELAAFEKEIAAFESELQAYKGKGNPEVEHLRDKAAYIRYMLQAYRHN
7.33 | D-domain SEQ ID NO: 163 (designed binder) MGSWMEFEGRLHAIKRRLRALGGSEAELAAFEKEIAAFESELQAYKGKGNPEVEVLRDQAAYIRLLLQAYRHN
15.6 | D-domain SEQ ID NO: 153 (designed binder) MGSWMEFNVRLRAILDRLHALGGSEAELAAFEKEIAAFESELQAYKGKGNPEVELLRDKAAYIRFMLQAYRHN
9.53 | D-domain SEQ ID NO: 166 (designed binder) MGSWMEFDERLWAIKKRLRALGGSEAELAAFEKEIAAFESELQAYKGKGNPEVEFLRHQAAYIRMLLQAYRHN
6.06 | D-domain SEQ ID NO: 162 (designed binder) MGSWMEFKHRLAAITFRLRALGGSEAELAAFEKEIAAFESELQAYKGKGNPEVELLRDKAAYIRLLLQAYRHN

ELISA_avg | Binder
11.9 | D-domain SEQ ID NO: 155 (designed binder) MGSWIEFDYRLKAILHRLRALGGSEAELAAFEKEIAAFESELQAYKGKGNPEVEGLRDKAAYIRFLLQAYRHN
11.7 | D-domain SEQ ID NO: 170 (designed binder) MGSWVEFDNRLYAIVDRLRALGGSEAELAAFEKEIAAFESELQAYKGKGNPEVEHLRQKAAYIRLILQAYRHN
18.6 | D-domain SEQ ID NO: 158 (designed binder) MGSWEEFDDRLNAIVYRLRALGGSEAELAAFEKEIAAFESELQAYKGKGNPEVEMLRDQAAYIRLMLQAYRHN
13.5 | D-domain SEQ ID NO: 152 (designed binder) MGSWVEFNARLDAILFRLRALGGSEAELAAFEKEIAAFESELQAYKGKGNPEVEHLRDQAAYIRLMLQAYRHN
17.6 | D-domain SEQ ID NO: 156 (designed binder) MGSWYEFEDRLLAIKVRLRALGGSEAELAAFEKEIAAFESELQAYKGKGNPEVEYLRDQAAYIRFMLQAYRHN
17.7 | D-domain SEQ ID NO: 159 (designed binder) MGSWVEFEQRLHAIVVRLRALGGSEAELAAFEKEIAAFESELQAYKGGGNPEVENLRDQAAYIRFMLQAYRHN
3.29 | D-domain SEQ ID NO: 168 (designed binder) MGSWYEFDGRLQAIIARLRALGGSEAELAAFEKEIAAFESELQAYKGKGNPEVEHLRFRAAYIRWILQAYRHN
23.5 | D-domain SEQ ID NO: 151 (designed binder) MGSWVEFDMRLQAILERLRALGGSEAELAAFEKEIAAFESELQAYKGKGNPEVEHLRDSAAYIRLMLQAYRHN
8.32 | D-domain SEQ ID NO: 148 (designed binder) MGSWMEFQGRLPAILARLRALGGSEAELAAFEKEIAAFESELQAYKGKGNPEVEHLRDKAAYIRWMLQAYRHN
10.1 | D-domain SEQ ID NO: 157 (designed binder) MGSWYEFQDRLSAITTRLRALGGSEAELAAFEKEIAAFESELQAYKGKGNPEVELLRDKAAYIRFMLQAYRHN
13.9 | D-domain SEQ ID NO: 154 (designed binder) MGSWIEFDTRLAAIVHRLRALGGSEAELAAFEKEIAAFESELQAYKGKGNPEVELLRDKAAYIRYMLQAYRHN
16.9 | D-domain SEQ ID NO: 165 (designed binder) MGSWYEFDERLSAIKLRLRALGGSEAELAAFEKEIAAFESELQAYKGKGNPEVEVLRAQAAYIRAILQAYRHN
14.9 | D-domain SEQ ID NO: 160 (designed binder) MGSWVEFEWRLEAIVVRLRALGGSEAELAAFEKEIAAFESELQAYKGKGNPEVEHLRDKAAYIRYMLQAYRHN
19.9 | D-domain SEQ ID NO: 164 (designed binder) MGSWSEFVFRLDTIKSRLRALGGSEAELAAFEKEIAAFESELQAYKGKGNPEVETLRDQAAYIRLMLQAYRHN
5.4 | D-domain SEQ ID NO: 167 (designed binder) MGSWHEFDGRLSAIKRRLWALGGSEAELAAFEKEIAAFESELQAYKGKGNPEVEHLRDQAAYIRYMLQAYRHN
5.39 | D-domain SEQ ID NO: 150 (designed binder) MGSWFEFQNRLQAILFRLRALGGSEAELAAFEKEIAAFESELQAYKGKGNPEVENLRDKAAYIRLMLQAYRHN
8.43 | D-domain SEQ ID NO: 203 (designed binder) MGSWTEFWTRLNAIYERLDALGGSEAELAAFEKEIAAFESELQAYKGKGNPEVEKLRFTAASIRMYLQAYRHN
4.09 | D-domain SEQ ID NO: 181 (designed binder) MGSWAEFDLRLRAIAKRLVALGGSEAELAAFEKEIAAFESELQAYKGKGNPEVEMLRLDAAYIRGVLQAYRHN
6.96 | D-domain SEQ ID NO: 143 (designed binder) MGSWTEFYQRLEAINFRLWALGGSEAELAAFEKEIAAFESELQAYKGKGNPEVEVLRDKAALIRLMLQAYRHN
3 | D-domain SEQ ID NO: 144 (designed binder) MGSWNEFYNRLHAINLRLWALGGSEAELAAFEKEIAAFESELQAYKGKGNPEVEVLREHAAIIRQALQAYRHN
12.8 | D-domain SEQ ID NO: 146 (designed binder) MGSWGEFNLRLVAIHVRLWALGGSEAELAAFEKEIAAFESELQAYKGKGNPEVEFLRSQAANIRAQLQAYRHN
4.26 | D-domain SEQ ID NO: 147 (designed binder) MGSWGEFSDRLEAINERLWALGGSEAELAAFEKEIAAFESELQAYKGKGNPEVEELRWQAAFIRANLQAYRHN
